# Experimental data published in doi:10.1101/2023.07.12.548668.
# B1: 30mer DNA (random) (dsDNA)
# DNA 1: GATCCCTCTAGATATCGGGCCCTCGATCCG
# DNA 2: CGGATCGAGGGCCCGATATCTAGAGGGATC
# B2: 30mer GC-rich DNA (dsDNA)
# DNA 1: TACCGGGGCGCGAGCCCAGCGCTCCTCCCA
# DNA 2: TGGGAGGAGCGCTGGGCTCGCGCCCCGGTA
# B3: 30mer AT-rich DNA (dsDNA)
# DNA 1: GAAGTAAAATTAAAAAAACAAAAAGAAGCT
# DNA 2: AGCTTCTTTTTGTTTTTTTAATTTTACTTC
# Target: XLF (UniProt Q9H9Q4 1-299)
# Experiment: NMR titration (2D lineshape, TITAN); apparent KD; NMR buffer (composition, salt and pH not in material); 800 MHz, 298 K stated for relaxation measurements; EMSA buffer not given
# Conditions: protein: recombinant; tags: N-terminal 6xHis-TEV; chain copies: 2; blunt
# Sequence of XLF (Q9H9Q4 whole entry): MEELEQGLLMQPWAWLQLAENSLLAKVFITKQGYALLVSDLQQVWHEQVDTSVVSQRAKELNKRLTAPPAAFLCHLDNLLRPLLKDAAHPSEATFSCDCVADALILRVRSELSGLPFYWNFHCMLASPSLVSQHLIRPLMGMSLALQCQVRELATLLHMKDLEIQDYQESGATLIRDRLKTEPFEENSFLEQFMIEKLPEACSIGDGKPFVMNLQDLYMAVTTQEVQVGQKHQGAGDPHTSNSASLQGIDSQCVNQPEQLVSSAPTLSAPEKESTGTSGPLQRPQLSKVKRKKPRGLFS
row,Binder,Kd
1,B1,14.3 ± 0.9 µM
2,B2,6.39 ± 0.81 µM
3,B3,4.3 ± 0.42 µM
